In the supplement of paper PMC7125110:
± gives the standard error. Variants at the floor of the assay were thinned out.

B1: glmS ribozyme (parent)
chain: AUAAAAGCGCCAGAACUACAGAAAUGUAGUUGACGAGGAGGAGGUUUAUCGAAUUUUCGGCGGAUGCCUCCAAA

Variants of: B1
Experiment: self-cleavage kobs at 10000 uM GlcN6P; higher = faster cleavage; RNA array
Conditions: with glucosamine-6-phosphate
In short: (§1)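 kcat and KM were obtained from weighted Michaelis–Menten fits across concentrations of kobs values. Those came from one- or two-exponential decay fits to per-tile medians normalised to baseline and to non-cleaving reference variants. The variants were barcoded ribozymes transcribed in situ by E. coli RNA polymerase on sequenced MiSeq chips and tracked through a hybridised Cy3 probe at 37 °C, with 40 μM to 10 mM glucosamine-6-phosphate in HEPES/KCl/Mg(OAc)2 buffer flowed in.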

Point of comparison: A6G U47A, “self-cleavage kobs at 10000 uM GlcN6P” value 0.000437 ± 0.00013 s⁻¹. Against it:
- C8A C11G A48U C67G C71A — lower, < 1e-05 s⁻¹
- G13U G37A G40U — lower, < 1e-05 s⁻¹
- A15U U56G C71A — within error, 0.000528 ± 0.00016 s⁻¹
- A14U A52U U54C — 3.8-fold lower, 0.000114 ± 1.6e-05 s⁻¹
- C16U G43C A64C C71G — lower, < 1e-05 s⁻¹
- A15U U49A A52G — lower, < 1e-05 s⁻¹
- A48U C61A C70G — lower, < 1e-05 s⁻¹
- A14G A36C A42U — lower, < 1e-05 s⁻¹
- C8U U54A U69A — 2.6-fold higher, 0.00115 ± 0.00055 s⁻¹
- A14C A42G C61A — lower, < 1e-05 s⁻¹
- A53U U65G C67U — 5.4-fold higher, 0.00235 ± 0.00042 s⁻¹
- A12U G29C A33U — 11-fold lower, 4.02e-05 ± 1.2e-05 s⁻¹
- C8G C10G G40U A52C — lower, < 1e-05 s⁻¹
- G35A A36U G43U — lower, < 1e-05 s⁻¹
- G38U G41U A48U A52G U56C G60A C68G C71U — lower, < 1e-05 s⁻¹
- G38U U45A C58A U65C — lower, < 1e-05 s⁻¹
- G9C G63A C68G — lower, < 1e-05 s⁻¹
- C8U U54A U55A C67G — within error, 0.000463 ± 0.00023 s⁻¹
- A33C G44A A48U — lower, < 1e-05 s⁻¹
- C10A U31C G38U A48C — lower, < 1e-05 s⁻¹
- A12G A15U U31G — 3.4-fold lower, 0.000128 ± 2.3e-05 s⁻¹
- C11U G40A A52C G62C — lower, < 1e-05 s⁻¹
- A14G A42U A52G — 6.9-fold lower, 6.3e-05 ± 1.1e-05 s⁻¹
- A15G G41C U47G C61U U65A — lower, < 1e-05 s⁻¹
- A14U C34G C71U — lower, < 1e-05 s⁻¹
- G13U U55G C67U — within error, 0.0003 ± 6.1e-05 s⁻¹
- U31G G38A A53C U65C — lower, < 1e-05 s⁻¹
- G32C A36C C67U — lower, < 1e-05 s⁻¹
- U57G A64G — 4.6-fold lower, 9.48e-05 ± 1.8e-05 s⁻¹
- G38A A39U U54A — lower, < 1e-05 s⁻¹
- A6U A14G A36U A48U G63U — lower, < 1e-05 s⁻¹
- U31A U49A U65C C67G — lower, < 1e-05 s⁻¹
- C16G U46C C70U — within error, 0.000325 ± 7.4e-05 s⁻¹
- G9U A15U G37U — lower, < 1e-05 s⁻¹
- G32A U55C G60U C61U — lower, < 1e-05 s⁻¹
- U54A G60U A64U — lower, < 1e-05 s⁻¹
- G9C U31A — lower, < 1e-05 s⁻¹
- A12C A64U — 12-fold lower, 3.59e-05 ± 5.3e-06 s⁻¹
- G40U U45A C70G — 2.7-fold lower, 0.000163 ± 3.4e-05 s⁻¹
- A12C C16U A52U — within error, 0.000334 ± 6.5e-05 s⁻¹
- C11U G32U C61G U69C — 3.1-fold lower, 0.00014 ± 3.4e-05 s⁻¹
- A6C U45C U69G — lower, < 1e-05 s⁻¹
- C8U G37C C50A G59C A64C — lower, < 1e-05 s⁻¹
- G7U C8U A12G C70G — 10-fold lower, 4.36e-05 ± 1.9e-05 s⁻¹
- A14U G40C U56A A64G — 5.1-fold lower, 8.64e-05 ± 2.9e-05 s⁻¹
- C10G A12G C61U — lower, < 1e-05 s⁻¹
- C8A U56C C70G — lower, < 1e-05 s⁻¹
- U30A U45C — within error, 0.000307 ± 8.9e-05 s⁻¹
- C10U G38U G63C C70U — lower, < 1e-05 s⁻¹
- G37U G43U G59A — lower, < 1e-05 s⁻¹
- G13A G44C C67A — 4.7-fold lower, 9.29e-05 ± 1.9e-05 s⁻¹
- A12U G32U U54C — within error, 0.000319 ± 5.4e-05 s⁻¹
- A15U U55G G63U C67U — lower, < 1e-05 s⁻¹
- C10A C11U G38C U55C C61A A64U — lower, < 1e-05 s⁻¹
- C10A U46A A48G — lower, < 1e-05 s⁻¹
- A14G A33U A39U — 10-fold lower, 4.23e-05 ± 1.4e-05 s⁻¹
- A15C G43C G51A C58G — lower, < 1e-05 s⁻¹
- G44A U56A A64G — 4.3-fold lower, 0.000101 ± 2.4e-05 s⁻¹
- A15C C16G U65G — within error, 0.000462 ± 8e-05 s⁻¹
- A39C A42U U46G — 11-fold lower, 3.93e-05 ± 1.5e-05 s⁻¹
- A15U C70U C71U — 6.6-fold lower, 6.65e-05 ± 1.8e-05 s⁻¹
- A6C U31A A64C C71G — lower, < 1e-05 s⁻¹
- G32C G37U G44C A52C — lower, < 1e-05 s⁻¹
- A42G U45C U46C — 2.3-fold higher, 0.00102 ± 0.00019 s⁻¹
- U31C G40C A53G — within error, 0.000261 ± 9.7e-05 s⁻¹
- G44C U56G — 7.8-fold lower, 5.6e-05 ± 1.2e-05 s⁻¹
- U45C U49G — 14-fold lower, 3.08e-05 ± 1.4e-05 s⁻¹
- G35U G41U A42C G62C C70A — lower, < 1e-05 s⁻¹
- A33C A52C U57G G63A — lower, < 1e-05 s⁻¹
- G38C A39U U46C — lower, < 1e-05 s⁻¹
- A36G A64G C70G — lower, < 1e-05 s⁻¹
- A12C G32A G35A G51C — lower, < 1e-05 s⁻¹
- A33C U45G — 9.3-fold lower, 4.71e-05 ± 1e-05 s⁻¹
- A5U A33C — within error, 0.000263 ± 6.3e-05 s⁻¹
- U45A A52U C61A — lower, < 1e-05 s⁻¹
- A36U U49G G63C — lower, < 1e-05 s⁻¹
- A12C G60U C61U — lower, < 1e-05 s⁻¹
- G32U U47G C70G — 3.6-fold lower, 0.00012 ± 3.4e-05 s⁻¹
- U47C U65G C71U — 7.7-fold higher, 0.00338 ± 0.00055 s⁻¹
- C16A U31C U55A — 2.3-fold lower, 0.000194 ± 3.1e-05 s⁻¹
- A36G G44U A53C — lower, < 1e-05 s⁻¹

Variants of: B1
Experiment: self-cleavage kobs at 2500 uM GlcN6P; higher = faster cleavage; RNA array
Conditions: with glucosamine-6-phosphate
In short: as §1

A6G G60U G66U and G40U C58A G60U cannot be ordered by “self-cleavage kobs at 2500 uM GlcN6P” value: under 1e-05 s⁻¹ for the first, under 1e-05 s⁻¹ for the second.
